Results as given in publication PMC12822413, “TSHR‐Targeting Nucleic Acid Aptamer Treats Graves' Ophthalmopathy via Novel Allosteric Inhibition”.

Biological target: recombinant TSHR-His (UniProt P16473 21-414)
Experiment: SPR; 5 mM Mg2+; kon 7.686e4 M-1s-1, koff 9.023e-4 s-1; 25 C; Flow: DPBS, 5 mM MgCl2, 4.5 g/L glucose, 0.1 mg/mL yeast tRNA, 1 mg/mL BSA, 4 C 30 min; SPR: DPBS, 5 mM Mg2+, pH 7.4, 25 C
Details: protein: commercial; tags: His; label: FAM (flow); biotin (pull-down); stem-loops (NUPACK predicted)

Chain of recombinant TSHR-His (P16473 21-414): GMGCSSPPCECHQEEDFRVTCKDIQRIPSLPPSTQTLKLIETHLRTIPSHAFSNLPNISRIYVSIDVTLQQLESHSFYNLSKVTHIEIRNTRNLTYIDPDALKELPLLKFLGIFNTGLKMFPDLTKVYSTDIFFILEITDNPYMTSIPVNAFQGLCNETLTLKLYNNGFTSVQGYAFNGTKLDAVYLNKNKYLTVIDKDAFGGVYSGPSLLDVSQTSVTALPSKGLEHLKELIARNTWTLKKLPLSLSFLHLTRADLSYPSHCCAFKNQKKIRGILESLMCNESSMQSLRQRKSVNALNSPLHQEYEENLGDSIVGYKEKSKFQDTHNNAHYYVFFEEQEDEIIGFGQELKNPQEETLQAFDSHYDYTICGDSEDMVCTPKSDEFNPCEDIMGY

B1: YC3 (structured_DNA)
DNA: ACCGACCGTGCTGGACTCAGATGAACAATCGATGGAAGATTGGGTCGCACCGGCCTCTTTCACTATGAGCGAGCCTGGCG
- Kd: 11.7 nM
